The target of this experiment is human immunoglobulin G drug separated from human plasma (Gammagard, Baxter) (human).

Consider C-G29A/K35R/D37E.5d (designed binder), for which the Ka stood at 6.5e+07 M⁻¹. Under C-G29A/D36R.5d (designed binder) stands 3e+08 M⁻¹.
